Experimental data taken from patent US20040161419A1, “Placental stem cells and uses thereof” (priority 2002, published 2004).

Assays:
placental stem cells [1] = test system: placental stem cells
Experimental: The cells were cultured for either 7-10 days or until the cultures grew to confluence. The cells were trypsinized and reseeded in 6 well plates. The cells were subjected to different culture conditions, having varying growth factors supplementing the DMEM or MEM based medium. […] Placental stem cells were cultured for an additional 14 days. At the end of 14 days, the cells were evaluated for the expression of human albumin, CYP3A4, A1AT, or C/EBP-alpha.

placental stem cells [2] = assay: Culture in the presence or absence of EGF (growth curve); format: cell-based, human; conditions: EGF 10 ng/ml versus absence of EGF
Experimental: A human placenta was obtained from an uncomplicated elective caesarean section. The whole placenta was placed in a sterilized 1000 ml cup and washed with Hank's Balanced Salt Solution (HBSS) containing penicillin G (100 U/ml), streptomycin (100 μg/ml), and amphotericin B (0.25 μg/ml). The umbilical cord was cut and the whole placenta was cut in half at the point of attachment of the umbilical cord. The amnion layer was peeled from the underlying chorion layer of the placenta by gentle stripping with a sterile scalpel, starting from the cut edge (middle of the placental body) and working outward. The amnion was washed with HBSS (without antibiotics) and rinsed with 0.05% Trypsin-EDTA. 0.05% Trypsin-EDTA was added to approximately twice the volume of the tissue in a 50 cc Falcon tube and incubated at 37° C. for 20 min on shaker in a 5% CO2 incubator. The tissue is transferred to a new tube with 0.05% Trypsin-EDTA. Media was added to remaining supernatant in the tube to stop trypsinization and centrifuged at 800 rpm for 10 min at 4° C. The pellet was resuspended in DMEM, 10% FBS, 1 mM Sodium Pyruvate, EGF (10 ng/ml), penicillin G (100 U/ml), streptomycin (100 μg/ml), and amphotericin B (0.25 μg/ml). The trysinization step was repeated up to a total of 3 times. The cells released by each trypsinization were plated separately or mixed in one tube after passing through a 100 μm cell strainer. […]

B1: FGF 7: fibroblast growth factor 7, media supplement (protein, UniProt P21781 32-194, looked up)
Fibroblast growth factor 7: CNDMTPEQMATNVNCSSPERHTRSYDYMEGGDIRVRRLFCRTQWYLRIDKRGKVKGTQEMKNNYNIMEIRTVAVGIVAIKGVESEFYLAMNKEGKLYAKKECNEDCNFKELILENHYNTYASAKWTHNGGEMFVALNQKGIPVRGKKTKKEQKTAHFLPMAIT
Placental stem cells [1]
  liver specific gene expression (albumin, CYP3A4, A1AT, C/EBP-alpha): did not enhance liver specific gene expression

B2: EGF: epidermal growth factor, media supplement (protein, UniProt P01133 23-1207, looked up)
Pro-epidermal growth factor: PQHWSCPEGTLAGNGNSTCVGPAPFLIFSHGNSIFRIDTEGTNYEQLVVDAGVSVIMDFHYNEKRIYWVDLERQLLQRVFLNGSRQERVCNIEKNVSGMAINWINEEVIWSNQQEGIITVTDMKGNNSHILLSALKYPANVAVDPVERFIFWSSEVAGSLYRADLDGVGVKALLETSEKITAVSLDVLDKRLFWIQYNREGSNSLICSCDYDGGSVHISKHPTQHNLFAMSLFGDRIFYSTWKMKTIWIANKHTGKDMVRINLHSSFVPLGELKVVHPLAQPKAEDDTWEPEQKLCKLRKGNCSSTVCGQDLQSHLCMCAEGYALSRDRKYCEDVNECAFWNHGCTLGCKNTPGSYYCTCPVGFVLLPDGKRCHQLVSCPRNVSECSHDCVLTSEGPLCFCPEGSVLERDGKTCSGCSSPDNGGCSQLCVPLSPVSWECDCFPGYDLQLDEKSCAASGPQPFLLFANSQDIRHMHFDGTDYGTLLSQQMGMVYALDHDPVENKIYFAHTALKWIERANMDGSQRERLIEEGVDVPEGLAVDWIGRRFYWTDRGKSLIGRSDLNGKRSKIITKENISQPRGIAVHPMAKRLFWTDTGINPRIESSSLQGLGRLVIASSDLIWPSGITIDFLTDKLYWCDAKQSVIEMANLDGSKRRRLTQNDVGHPFAVAVFEDYVWFSDWAMPSVMRVNKRTGKDRVRLQGSMLKPSSLVVVHPLAKPGADPCLYQNGGCEHICKKRLGTAWCSCREGFMKASDGKTCLALDGHQLLAGGEVDLKNQVTPLDILSKTRVSEDNITESQHMLVAEIMVSDQDDCAPVGCSMYARCISEGEDATCQCLKGFAGDGKLCSDIDECEMGVPVCPPASSKCINTEGGYVCRCSEGYQGDGIHCLDIDECQLGEHSCGENASCTNTEGGYTCMCAGRLSEPGLICPDSTPPPHLREDDHHYSVRNSDSECPLSHDGYCLHDGVCMYIEALDKYACNCVVGYIGERCQYRDLKWWELRHAGHGQQQKVIVVAVCVVVLVMLLLLSLWGAHYYRTQKLLSKNPKNPYEESSRDVRSRRPADTEDGMSSCPQPWFVVIKEHQDLKNGGQPVAGEDGQAADGSMQPTSWRQEPQLCGMGTEQGCWIPVSSDKGSCPQVMERSFHMPSYGTQTLEGGVEKPHSLLSANPLWQQRALDPPHQMELTQ
modifications: Pro-epidermal growth factor
notes: epidermal growth factor, media supplement
Placental stem cells [2]
  proliferation of placental stem cells: proliferate robustly
Placental stem cells [2]; listed as Epidermal Growth Factor (EGF)
  proliferation of placental stem cells: grow significantly better
Placental stem cells [1]
  liver specific gene expression (albumin, CYP3A4, A1AT, C/EBP-alpha): enhance liver specific gene expression

B3: FGF 4: fibroblast growth factor 4, media supplement (protein, UniProt P08620 31-206, looked up)
Fibroblast growth factor 4: APTAPNGTLEAELERRWESLVALSLARLPVAAQPKEAAVQSGAGDYLLGIKRLRRLYCNVGIGFHLQALPDGRIGGAHADTRDSLLELSPVERGVVSIFGVASRFFVAMSSKGKLYGSPFFTDECTFKEILLPNNYNAYESYKYPGMFIALSKNGKTKKGNRVSPTMKVTHFLPRL
Placental stem cells [1]
  liver specific gene expression (albumin, CYP3A4, A1AT, C/EBP-alpha): did not enhance liver specific gene expression
